The values below come from US20230159663A1 (VIRTUOSO BINCO, published 2023).

Assay [1] has as its target T1, human EpCAM extracellular domain with C-terminal His tag (Novoprotein #C339) (human, UniProt P16422 24-265).
T1 construct: extracellular domain; Bought protein
T1 sequence (looked up): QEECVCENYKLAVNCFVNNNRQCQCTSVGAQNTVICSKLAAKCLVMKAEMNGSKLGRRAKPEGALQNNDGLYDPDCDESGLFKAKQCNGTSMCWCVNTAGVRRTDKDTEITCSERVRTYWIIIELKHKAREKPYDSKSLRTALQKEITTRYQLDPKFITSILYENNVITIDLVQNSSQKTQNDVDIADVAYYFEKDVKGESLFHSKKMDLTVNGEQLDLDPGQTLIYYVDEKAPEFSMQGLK
The assay can be described thus: ELISA on human EpCAM. (ELISA stands for enzyme-linked immunosorbent assay.)

For assay [2], the target named is T2, human EpCAM on cells (CHO-K1 cells transfected with human EpCAM; EpCAM+ tumour cell lines) (human, UniProt P16422 24-314).
T2 construct: whole, on cells; also called CHO-K1-huEpCAM cells; cell-surface EpCAM
T2 sequence (looked up): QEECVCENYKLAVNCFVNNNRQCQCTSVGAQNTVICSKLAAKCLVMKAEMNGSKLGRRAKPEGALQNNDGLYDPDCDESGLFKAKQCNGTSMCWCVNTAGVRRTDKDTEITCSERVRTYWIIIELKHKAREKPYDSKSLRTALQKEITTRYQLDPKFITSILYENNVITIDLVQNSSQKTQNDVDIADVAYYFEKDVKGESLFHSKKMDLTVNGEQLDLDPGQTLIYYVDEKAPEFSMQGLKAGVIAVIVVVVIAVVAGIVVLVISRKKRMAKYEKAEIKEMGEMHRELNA
The experiment in a line: flow cytometry on CHO-K1 cells transfected with human EpCAM.

Assay [3] concerns the target T3, human CD47 extracellular domain with C-terminal 6×His tag (human, UniProt Q08722 19-139, limits assumed).
T3 construct: extracellular domain; Made in Expi293F cells (section 5.4.1); also called recombinant CD47; huCD47
The assay can be described thus: ELISA, plate coated with recombinant huCD47.

Assay [4] has as its target T1, human EpCAM extracellular domain with …. The assay can be described thus: ELISA, plate coated with human EpCAM.
In assay [5] the target is T2, human EpCAM on cells (CHO-K1 cells …). The experiment in a line: flow cytometry on MCF-7, Caco-2 and A431 cells. On the technique in general: Flow cytometry measures light scatter and fluorescence of single cells or particles in a stream.
Assay [6] addresses T4, CD47 expressed on human red blood cells (human, UniProt Q08722 19-323).
T4 construct: whole, on cells; also called RBCs; RBC
The experiment in a line: flow cytometry on human red blood cells.

Where a chain is given by its changes, count along the chain named. Numbers in names are those of the source.

B1: mAb-33 (chimeric anti-EpCAM antibody) (antibody, V domains shown)
VH: EVLLQQSVADLVRPGASVKLSCTASGLNIKNTYIHWVKQMPEQGLEWIGRIGPANGNTKYAPKFQGKATITADTSSDTAYLQLSSLTSEDTAIYYCALAYYRIYWGQGTTLTVSS
VL: DIVLTQSPASLAVSLGQRATISCRASESVDNSGISFMHWYQQKPGQSPKLLIYRASNLESGIPARFSGSGSRTDFTLTINPVETDDVATYYCQQSYENPWTFGGGTKLEIK
For B1, the binding result in assay [1] and in assay [2] was “binds” in each case.

B2: mAb-35 (chimeric anti-EpCAM antibody) (antibody, V domains shown)
VH: EVQLQQSVAELVRPGASVKLSCTASGFNIKNTYMHWVKQRPEQGLEWIGRIAPANGNTKYAPKFQDKATITANTSSNTAYLQLGSLTSEDTAIYYCAFIYQLPYWGQGTTLTVSS
VL: B1 VL with S32Y, Y40F, S47P, Y53F, N57S, E97K, N98D, G105A
As to B2, the binding result in assay [1] and in assay [2] was “binds” in each case.

B3: mAb-37 (chimeric anti-EpCAM antibody) (antibody, V domains shown)
VH: B2 VH with A61D, N73D, T74S, Q82H, G84S, T109S
VL: B1 VL with A9T, S32Y, S47P, N57S, T84S, E97K, N98D, G105A
On to B3, for which, in assay [1], the binding result is “binds”.

B4: Bi-1 (3C-KIH EpCAM × CD47 scFv bispecific antibody) (bispecific antibody, human IgG1)
chain: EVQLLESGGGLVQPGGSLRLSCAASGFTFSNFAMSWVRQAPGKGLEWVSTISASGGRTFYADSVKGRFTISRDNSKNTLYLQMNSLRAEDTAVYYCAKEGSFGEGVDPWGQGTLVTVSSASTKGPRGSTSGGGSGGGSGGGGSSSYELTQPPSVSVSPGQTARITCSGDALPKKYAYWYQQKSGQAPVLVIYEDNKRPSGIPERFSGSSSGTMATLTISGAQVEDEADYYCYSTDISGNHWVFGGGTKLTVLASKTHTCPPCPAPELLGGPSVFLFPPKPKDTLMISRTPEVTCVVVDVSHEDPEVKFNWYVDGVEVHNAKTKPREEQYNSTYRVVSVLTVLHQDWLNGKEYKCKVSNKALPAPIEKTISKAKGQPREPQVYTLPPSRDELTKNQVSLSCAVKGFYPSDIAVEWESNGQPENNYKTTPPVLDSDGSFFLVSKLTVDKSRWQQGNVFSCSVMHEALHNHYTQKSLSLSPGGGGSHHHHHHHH
heavy: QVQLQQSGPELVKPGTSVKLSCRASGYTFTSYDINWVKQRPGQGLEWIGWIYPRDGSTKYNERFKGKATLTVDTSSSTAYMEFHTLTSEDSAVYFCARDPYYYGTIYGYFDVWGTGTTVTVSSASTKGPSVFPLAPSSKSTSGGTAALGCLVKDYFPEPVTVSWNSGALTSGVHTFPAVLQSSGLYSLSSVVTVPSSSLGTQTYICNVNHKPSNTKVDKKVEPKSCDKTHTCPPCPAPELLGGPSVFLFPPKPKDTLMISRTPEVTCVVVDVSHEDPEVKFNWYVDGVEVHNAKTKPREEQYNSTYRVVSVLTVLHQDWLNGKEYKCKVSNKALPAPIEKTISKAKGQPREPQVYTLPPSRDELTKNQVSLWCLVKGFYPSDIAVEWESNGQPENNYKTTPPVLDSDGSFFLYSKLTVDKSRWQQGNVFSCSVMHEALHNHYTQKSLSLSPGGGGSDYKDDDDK
VL: DIQMTQSPSSLSASLGERVSLTCRASQDIGNSLNWLQQKPDGTIKRLIYVTSRLDSGVPKRFSGSRSGSDYFFTISSLESEDFADYYCLQYASSPFTFGSGTKLEIK
notes: Three-chain knob-into-hole format
As to B4, the binding result in assay [3] and in assay [4] was “binds” each time.

B5: mAb-1 (chimeric anti-EpCAM antibody) (antibody, V domains shown)
VH: QVQLQQSGPELVKPGTSVKLSCRASGYTFTSYDINWVKQRPGQGLEWIGWIYPRDGSTKYNERFKGKATLTVDTSSSTAYMEFHTLTSEDSAVYFCARDPYYYGTIYGYFDVWGTGTTVTVSS
VL: B4 VL
notes: also called EpCAM Mab1
Usually EC50 stands for the concentration that produces a half-maximal response. The low end stands for greater potency, the high end for weaker potency. A word on the EC50 (read off the curve): it is the concentration that produces a half-maximal response. Regarding B5, the binding result in assay [3] is recorded as “no binding (tested: 100 nM)”. The EC50 in assay [5] is below 20 nM. The “EC50 (read off the curve)” value in assay [4] is around 0.1 nM.

B6: mAb-4 (chimeric anti-EpCAM antibody) (antibody, V domains shown)
VH: QVQLQQPGAELVRPGTSVKLSCKASGYTFTSYWMHWIKQRPGQGLEWIGVIDPSNSYSNYNQKFKGRATLTVDTYSSTAYMQLSSLTSEDSAVYYCARPYNHGRDAMDYWGQGTSVTVSS
VL: DVLLTQTPLSLSVSLGDQASISCRSSQSFVHINGNTYLEWFLQKPGLSPKLLIYKVSNRFSGVPDRFSGSGSGTDFTLKISRVEAEDLGIYYCFQGSHVPLTFGAGTKLELK
For the molecule B6, in assay [1], the binding result is recorded as “binds”.

B7: VIR47 hIgG4-SPL (antibody)
heavy: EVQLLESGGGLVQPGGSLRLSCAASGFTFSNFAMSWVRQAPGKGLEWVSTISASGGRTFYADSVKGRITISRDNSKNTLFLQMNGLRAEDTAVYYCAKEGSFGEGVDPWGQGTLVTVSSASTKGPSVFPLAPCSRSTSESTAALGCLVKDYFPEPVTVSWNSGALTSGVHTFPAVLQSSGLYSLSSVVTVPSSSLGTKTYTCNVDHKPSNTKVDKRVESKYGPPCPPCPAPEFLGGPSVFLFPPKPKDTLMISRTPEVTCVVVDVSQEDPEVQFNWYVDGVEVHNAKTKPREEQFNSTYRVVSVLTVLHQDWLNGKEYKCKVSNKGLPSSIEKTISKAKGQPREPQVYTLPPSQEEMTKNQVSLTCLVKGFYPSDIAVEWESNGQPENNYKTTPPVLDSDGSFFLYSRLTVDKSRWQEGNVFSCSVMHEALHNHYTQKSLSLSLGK
light: SYEMTQPPSVSVSPGQTARITCSGDALPKKYAYWYQQKSGQAPVLVIYEDNKRPSGIPERFSGSSSGTMATLTISGAQVEDEADYYCYSTDISGNHWVFGGGTELTVLGQPKAAPSVTLFPPSSEELQANKATLVCLISDFYPGAVTVAWKADSSPVKAGVETTTPSKQSNNKYAASSYLSLTPEQWKSHRSYSCQVTHEGSTVEKTVAPTECS
notes: Anti-CD47 from OmniRat rats on a human IgG4 framework with S228P; also called VIR47 mAb; IgG4 form
As for B7, the “fold higher concentration required for RBC binding, against CD47 BMK-1” value in assay [6] was above 20 fold.

B8: mAb-36 (chimeric anti-EpCAM antibody) (antibody, V domains shown)
VH: QVQVQQSGPELVKPGTSVKISCKTSGYTFTDYYITWVKQRPGQGLEWIGWIFPGRGISFYNENFKDKATLTVDKSSNTAFMLLSSLTSEDSAVYFCARWGGTWFAYWGQGTLITVSA
VL: EIVLTQSPAITAAFLGQKVTITCSASSSVSYIHWYQQKSDTSPKPWIYEISKLASGVPARFSGSGSGTSYSLTISSMEAEDAAIYYCQQWNYPLITFGGGTKLEIK
In the case of B8, the binding result in assay [1] and in assay [2] was “binds” throughout.

B9: mAb-8 (chimeric anti-EpCAM antibody) (antibody, V domains shown)
VH: QVQLQQSGAELARPGASVQLSCKASGYTFTSYGISWLKQRAGQGLEWIGEIYPRSDNTYYNEKFKGKATLTADKSSSTAYMELRSLTSEDSAVYFCARRAGMWFAYWGQGTLVTVSA
VL: B8 VL with F14S, Y31D, I32M, D40G, A59T, Q89H, N91S, I95M
notes: also called EpCAM Mab8
The molecule B9 gave an EC50 in assay [5] below 20 nM.

B10: VIR47.V7 hIgG1 (antibody, V domains shown)
VH: EVQLLESGGGLVQPGGSLRLSCAASGFTFSNFAMSWVRQAPGKGLEWVSTISASGGRTFYADSVKGRITISRDNSKNTLYLQMNSLRAEDTAVYYCAKEGSFGEGVDPWGQGTLVTVSS
VL: SYEMTQPPSVSVSPGQTARITCSGDALPKKYAYWYQQKSGQAPVLVIYEDNKRPSGIPERFSGSSSGTMATLTISGAQVEDEADYYCYSTDISGNHWVFGGGTKLTVLG
notes: HC: F79Y, G82bS; LC: E103K (Kabat) against VIR47; already contained in the entries
Turning to B10, the “fold higher concentration required for RBC binding, against CD47 BMK-1” value in assay [6] is above 20 fold.

B11: mAb-39 (chimeric anti-EpCAM antibody) (antibody, V domains shown)
VH: QIQLVQSGPELKKPGETVKISCKASGYTFTSYGVTWVKQAPGKGLKWMGWINTYSGVPTYADDFKGRFAFSLETSASTAYLQINNLKNEDTATYFCARSHSNYDFWGQGTTLTVSS
VL: DIVMTQSQKFMSTTVGDRVSITCQASQNVGTDVGWYQQKPGQSPKLLIYSASNRYTGVPDRFTGSGSGTDFTLTISNMQSEDLADYFCQQYSSYPRTFGGGTKLEIK
Consider B11, for which the binding result in assay [1] and in assay [2] was “binds” in each case.

B12: mAb-2 (chimeric anti-EpCAM antibody) (antibody, V domains shown)
VH: EVQLVESGGGLVQPKGSLKLSCAASGFTFNTYAMHWVRQAPGKGLEWVARIRSKTYNYATFYADSVKDRFTISRDDSQSMLYLQMNNLKTEDTAMFYCVTGSSYAMDYWGQGTSVTVSS
VL: DILLTQSPAILSVSPGERVSFSCRASQSIGTSLHWYQQRTNGSPRLLIKYASESISGIPSRFSGSGSGTDFTLSINSVESEDIADYYCQQSNSWPYTFGGGTKLEIK
notes: also called EpCAM Mab2
Molecule B12 came in with an EC50 in assay [5] below 20 nM.

B13: mAb-30 (chimeric anti-EpCAM antibody) (antibody, V domains shown)
VH: EVQLQQSGPELVKPGASVKISCKASGYTFTDYYMSWVKQSHGRSLEWIGEINPDNGDTSHNQKFKGKATMTVDKSSGTGNMEIRSLTSEDAGIYYCTSYFSYWGQGTLVTVSA
VL: DVLMTQSPLSLPVSLGDQASISCRSSQSIVDSDGSTYLEWYLQKPGQSPKLLIYKVSNRFSGVPDRFSGSGSGTDFTLKISGVEAEDLGVYYCFQGSHVPYTFGGGTKLEIK
B13: the binding result in assay [1] and in assay [2] was “binds” in each case.

B14: mAb-21 (chimeric anti-EpCAM antibody) (antibody, V domains shown)
VH: DVQLQESGPGLVKPSQSLSLTCTVTGYSITSDFAWNWIRQFPGNKLEWVGYITYSGTTSYNPSLKSRISITRDTSKNQFFLQLSSVTTEDTATYYCARSFHFFAYGFAYWGQGTLVTVSA
VL: not shown
Molecule B14 yielded an EC50 in assay [5] below 20 nM.

B15: mAb-28 (chimeric anti-EpCAM antibody) (antibody, V domains shown)
VH: QVQLQQSGAELARPGASVKVSCKASGYTFTSYGISWVKQRTGQGLEWIGEIYPTRDYTYYNENFKGKATLTADKSSTTAYMELRSLTSEDSAVYFCARDGPPFAYWGQGTLVTVSA
VL: DIVMTQAAFSNPVTLGTSASISCRSSKSLLHSNGFTYLHWYLQKPGQSPQLLIYQMSSLASGVPDRFSSSGSGTDFTLRISRVEAEDVGVYYCAQNLELPRTFGGGTKLEIK
Consider B15, for which the binding result in assay [1] and in assay [2] was “binds” throughout.
